{"source": "paper PMC6108849", "about": "“Heteromeric RNP Assembly at LINEs Controls Lineage-Specific RNA Processing”", "binders": {"B1": {"name": "ATCTT2 RNA probe (ssRNA)", "RNA": "GAAUACGAAUUCCAUAUAUGAUCGAUAAAUAUAUGGUACCUUGCUAUCUUACAUCUUUUUACGGAUCCCAUAUAUGAUCGAUAUAUAUAAGCU"}}, "key": {"rPTBP1;rMATR3 PRI-RRMs": {"molecular_target": "rPTBP1;rMATR3 PRI-RRMs (human?;human?, UniProt P26599;P43243 1-557;341-592, |)", "sequence (P26599 whole entry, one chain of several)": "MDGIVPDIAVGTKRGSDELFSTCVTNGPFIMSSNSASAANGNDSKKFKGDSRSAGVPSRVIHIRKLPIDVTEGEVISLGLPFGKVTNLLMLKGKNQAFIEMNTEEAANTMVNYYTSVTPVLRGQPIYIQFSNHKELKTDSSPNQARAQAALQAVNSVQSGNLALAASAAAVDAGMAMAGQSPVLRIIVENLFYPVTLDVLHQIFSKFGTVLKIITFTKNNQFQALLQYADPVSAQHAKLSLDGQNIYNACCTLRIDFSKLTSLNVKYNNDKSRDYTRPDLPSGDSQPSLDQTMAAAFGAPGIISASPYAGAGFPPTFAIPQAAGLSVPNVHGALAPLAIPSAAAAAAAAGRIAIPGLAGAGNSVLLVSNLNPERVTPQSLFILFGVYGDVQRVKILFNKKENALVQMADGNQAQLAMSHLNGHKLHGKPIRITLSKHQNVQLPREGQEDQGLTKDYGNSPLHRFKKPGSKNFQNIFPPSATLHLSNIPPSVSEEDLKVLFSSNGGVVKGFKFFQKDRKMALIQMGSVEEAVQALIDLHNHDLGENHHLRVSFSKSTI", "assay": "UV crosslinking; PTBP1 crosslinking retained at excess rMATR3; heteromeric complex; 30 C 20 min, 10 fmol RNA, UV crosslink on ice (1920 mJ), RNase A1/T1 digestion, 15% denaturing PAGE; buffer, salt and pH not stated", "conditions": "protein: recombinant;recombinant; (HisTrap purified); copies: 1;1; label: 32P-UTP"}, "rMATR3 RRMs": {"molecular_target": "T1, rMATR3 RRMs (UniProt P43243 362-592)", "T1 sequence": "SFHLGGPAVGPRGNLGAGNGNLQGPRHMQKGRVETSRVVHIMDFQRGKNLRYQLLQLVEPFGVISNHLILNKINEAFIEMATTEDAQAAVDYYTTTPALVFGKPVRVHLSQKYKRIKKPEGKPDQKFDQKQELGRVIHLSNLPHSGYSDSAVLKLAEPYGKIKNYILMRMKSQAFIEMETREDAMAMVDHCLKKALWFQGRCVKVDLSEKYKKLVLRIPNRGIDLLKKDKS", "assay": "UV crosslinking competition; competes with 0.5 uM rPTBP1 at equimolar concentration; 30 C 20 min, 10 fmol RNA, UV crosslink on ice (1920 mJ), RNase A1/T1 digestion, 15% denaturing PAGE; buffer, salt and pH not stated", "conditions": "protein: recombinant; (HisTrap purified); label: 32P-UTP"}}}
{"binder": "B1", "values": [{"measurement": "binding result", "setting": "rPTBP1;rMATR3 PRI-RRMs", "value": "binds"}, {"measurement": "binding result", "setting": "rMATR3 RRMs", "value": "binds"}]}
